# Biological target: T1, cynomolgus CD3 (cynomolgus, UniProt Q95LI5 22-198; Q95LI8 22-171)
# T1 construct: Rats were immunised with cynomolgus CD3-epsilon/delta constructs; also called CD3 protein of Cynomolgus macaque; non-human primate CD3 proteins
# Assay: flow cytometry, parental monospecific anti-CD3 on cyno T-cells
# T1 sequence (Q95LI5 22-198, chain 1 of 2): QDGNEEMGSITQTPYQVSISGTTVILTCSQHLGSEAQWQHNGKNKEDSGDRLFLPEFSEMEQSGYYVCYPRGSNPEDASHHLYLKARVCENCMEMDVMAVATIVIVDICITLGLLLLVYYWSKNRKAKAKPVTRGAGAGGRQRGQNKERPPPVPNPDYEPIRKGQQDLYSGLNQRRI
# T1 sequence (Q95LI8 22-171, chain 2 of 2): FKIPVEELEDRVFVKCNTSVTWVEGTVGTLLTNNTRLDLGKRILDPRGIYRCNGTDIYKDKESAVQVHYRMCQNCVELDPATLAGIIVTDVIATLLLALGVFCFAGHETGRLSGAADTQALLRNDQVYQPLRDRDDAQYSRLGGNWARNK
row,Binder,Cyno T-cell bind (MFI)
1,"anti-CD3 FlicAb ID 304703 (SEQ ID NO:39) (antibody, V domains shown, fully human IgG1 with the fixed kappa light chain) VH: QLQLQESGPGLVKPSQTLSLTCTVSGGSISSGGHYWSWIRQHPGKGLEWIGYIHYSGSTYYNPSLKSRVIISVDTSKNQFSLKLRSVTAADTAVYYCARWRHDIFAAYPYYYYGMDVWGQGTLVTVSS VL: not shown",26.2
2,"anti-CD3 FlicAb ID 313329 (SEQ ID NO:6) (antibody, V domains shown, fully human IgG1 with the fixed kappa light chain) VH: QLQLQESGPGLVKPSETLSLTCTVSGGSISSGGHYWSWIRQHPGKGLEWIGYIHHSGSTNYNPSLKSRITISVDTSKNQFSLKVSSVTAADTAVYYCARWRHDIFAAYPYYYYGMDVWGQGTLVTVSS VL: not shown",17.4
3,"anti-CD3 FlicAb ID 313306 (SEQ ID NO:1) (antibody, V domains shown, fully human IgG1 with the fixed kappa light chain; also called αCD3_F1F) VH: QLQLQESGPGLVKPSQTLSLTCSVSGGSIRSGGHYWSWIRQHPGKGLEWIGYIHHSGSTYYNPSLKSRVIISVDTSKNQFSLKLRSVTAADTAIYYCARWRHDIFTTYPYYYYGMDVWGQGTLVTVSS VL: not shown",71.7
